Series [1] deals with the molecule itself. Briefly: negative-stain electron microscopy.
Series [2] deals with the molecule itself.
For series [3], the target named is Cys-less MtrE C21S (Neisseria gonorrhoeae) (UniProt Q51006). Description: cross-linking.
Series [4] concerns the molecule itself. Briefly: cross-linking.
Series [5] concerns the molecule itself. Briefly: native MS.
Series [6] deals with the molecule itself. Description: atomic force microscopy.

Values joined by “and” are separate entries in the source; they are usually repeats but may differ in a detail not shown here. Equal values may be shown once. Read-outs that look alike come from different tables or passages of the source.

B1: MacA (natural protein, E. coli, UniProt P75830 1-371, looked up)
chain: MKKRKTVKKRYVIALVIVIAGLITLWRILNAPVPTYQTLIVRPGDLQQSVLATGKLDALRKVDVGAQVSGQLKTLSVAIGDKVKKDQLLGVIDPEQAENQIKEVEATLMELRAQRQQAEAELKLARVTYSRQQRLAQTKAVSQQDLDTAATEMAVKQAQIGTIDAQIKRNQASLDTAKTNLDYTRIVAPMAGEVTQITTLQGQTVIAAQQAPNILTLADMSAMLVKAQVSEADVIHLKPGQKAWFTVLGDPLTRYEGQIKDVLPTPEKVNDAIFYYARFEVPNPNGLLRLDMTAQVHIQLTDVKNVLTIPLSALGDPVGDNRYKVKLLRNGETREREVTIGARNDTDVEIVKGLEAGDEVVIGEAKPGAAQ
Take B1: the “stoichiometry N” value in series [1] stood at 6.

B2: MtrD (natural protein, Neisseria gonorrhoeae, UniProt Q51073 1-1067, looked up)
chain: MAKFFIDRPIFAWVISIFIIAAGIFGIKSLPVSQYPSVAAPTITLHAIYPGASAQVMEGSVLSVIERNMNGVEGLDYMSTSADSSGSGSVSLTFTPDTDENLAQVEVQNKLSEVLRTLPATVQQYGVTVSKARSNFLMIVMLSSDVQSTEEMNDYAQRNVVPELQRIEGVGQVRLFGAQRAMRIWVDPKKLQNYNLSFADVGSALSAQNIQISAGSIGSLPAVRGQTVTATVTAQGQLGTAEEFGNVILRANTDGSNIYLKDVAKVGLGMEDYSSSTRLNGVNTTGMAVMLSNSGNAMATAKAVKERLAVLEKYFPQGMSWKTPYDTSKFVEISIEKVIHTLIEAMVLVFVVMYLFLQNIRYTLIPTIVVPISLLGGFAFISYMGMSINVLTMFAMILVIGIVVDDAIVVVENVERIMAGEGLPPKEATKKAMGQISGAVIGITAVLISVFVPLAMFSGAAGNIYKQFALTMASSIAFSAFLALTLTPALCATMLKTIPKGHHEEKKGFFGWFNKKFDSWTHGYEGRVAKVLRKTFRMMVVYIGLAVVGVFLFMRLPTSFLPTEDQGFVMVSVQLPAGATKERTDATLAQVTQLAKSIPEIENIITVSGFSFSGSGQNMAMGFAIFKDWNERTASGSDAVAVAGKLTGMMMGTLKDGFGIAVVPPPILELGNGSGLSINLQDRNNTGHTGIAGEGNELIQKMRASGLFDPSTVRAGGLEDSPQLKIDINRAAAAAQGISFADIRTALASALSSSYVSDFPNQGRLQRVMVQADEDARMQPADILNLTVPNKSGVAVPLSTIATVSWENGTEQSVRFNGYPSMKLSASPATGVSTGQAMEAVQKMVDELGGGYSFEWGGQSSEEAKGGSQTLILYGLAVAAVFLVLAALYESWSIPLAVILVIPLGLIGAAAGVTGRNLFEGLLGSVPSFANDIYFQVGFVTVMGLSAKNAILIIEFAKDLQAQGKSAVEAALEAARLRFRPIIMTSFAFILGVVPLYIAAGASSASQRAIGTTVFWGMLVGTLLSVFLVPLFYVVVRKFFKETAHEHEMAVRHASKAGITGSDDKQY
As for B2, the “stoichiometry N” value in series [2] came to 3.

B3: NT-MtrC D143C (domain or fragment, Neisseria gonorrhoeae, UniProt P43505 35-412, looked up)
chain: GQPAGREAPAPVVGVVTVHPQTVALTVELPGRLESLRTADVRAQVGGIIQKRLFQEGSYVRAGQPLYQIDSSTYEAGLESARAQLATAQATLAKADADLARYKPLVSACAISKQEYDAAVTAKRSAEASVKAAQAAIKSAGINLNRSRITAPISGFIGQSKVSEGTLLNAGDTTVLATIRQTNPMYVNVTQSASEVMKLRRQIAEGKLLAADGAIAVGIKFDDGTVYPEKGRLLFADPTVDESTGQITLRAAVSNDQNILMPGLYVRVLMDQVAADNAFIVPQQAVTRGAKDTVMIVNAQGGMEPREVTVAQQQGTNWIVTSGLKDGDKVVVEGISIAGMTGAKKVTPKEWAPSENQAAAPQAGVQTASEAKPASEAK
In series [3], B3 showed a stoichiometry N (MtrC per MtrE) of 2. Moreover, the “stoichiometry N” value in series [4] stood at 2.

B4: NT-MtrC, the N-terminal truncated (Δ1–34) MtrC (domain or fragment, Neisseria gonorrhoeae, UniProt P43505 35-412, looked up)
chain: GQPAGREAPAPVVGVVTVHPQTVALTVELPGRLESLRTADVRAQVGGIIQKRLFQEGSYVRAGQPLYQIDSSTYEAGLESARAQLATAQATLAKADADLARYKPLVSADAISKQEYDAAVTAKRSAEASVKAAQAAIKSAGINLNRSRITAPISGFIGQSKVSEGTLLNAGDTTVLATIRQTNPMYVNVTQSASEVMKLRRQIAEGKLLAADGAIAVGIKFDDGTVYPEKGRLLFADPTVDESTGQITLRAAVSNDQNILMPGLYVRVLMDQVAADNAFIVPQQAVTRGAKDTVMIVNAQGGMEPREVTVAQQQGTNWIVTSGLKDGDKVVVEGISIAGMTGAKKVTPKEWAPSENQAAAPQAGVQTASEAKPASEAK
As for B4, the “stoichiometry N” value in series [5] was 6 and 5.

B5: NT-MtrC E149C (domain or fragment, Neisseria gonorrhoeae, UniProt P43505 35-412, looked up)
chain: GQPAGREAPAPVVGVVTVHPQTVALTVELPGRLESLRTADVRAQVGGIIQKRLFQEGSYVRAGQPLYQIDSSTYEAGLESARAQLATAQATLAKADADLARYKPLVSADAISKQCYDAAVTAKRSAEASVKAAQAAIKSAGINLNRSRITAPISGFIGQSKVSEGTLLNAGDTTVLATIRQTNPMYVNVTQSASEVMKLRRQIAEGKLLAADGAIAVGIKFDDGTVYPEKGRLLFADPTVDESTGQITLRAAVSNDQNILMPGLYVRVLMDQVAADNAFIVPQQAVTRGAKDTVMIVNAQGGMEPREVTVAQQQGTNWIVTSGLKDGDKVVVEGISIAGMTGAKKVTPKEWAPSENQAAAPQAGVQTASEAKPASEAK
Regarding B5, in series [3], the stoichiometry N (MtrC per MtrE) was 2. The “stoichiometry N” value in series [4] was found to be 2.

B6: MtrC α-helical coiled-coil hairpin domain (domain or fragment, Neisseria gonorrhoeae, UniProt P43505 103-183, looked up)
chain: IDSSTYEAGLESARAQLATAQATLAKADADLARYKPLVSADAISKQEYDAAVTAKRSAEASVKAAQAAIKSAGINLNRSRI
In the case of B6, the “stoichiometry N” value amounted to 2 in series [5] and 6 in series [6].

B7: MtrE, wild type (natural protein, Neisseria gonorrhoeae, UniProt Q51006 1-467, looked up)
chain: CTMIPQYEQPKVEVAETFQNDTSVSSIRAVDLGWHDYFADPRLQKLIDIALERNTSLRTAVLNSEIYRKQYMIERNNLLPTLAANANGSRQGSLSGGNVSSSYNVGLGAASYELDLFGRVRSSSEAALQGYFASVANRDAAHLSLIATVAKAYFNERYAEEAMSLAQRVLKTREETYNAVRIAVQGRRDFRRRPAPAEALIESAKADYAHAARSREQARNALATLINRPIPEDLPAGLPLDKQFFVEKLPAGLSSEVLLDRPDIRAAEHALKQANANIGAARAAFFPSIRLTGSVGTGSVELGGLFKSGTGVWAFAPSITLPIFTWGTNKANLDVAKLRQQAQIVAYESAVQSAFQDVANALAAREQLDKAYDALSKQSRASKEALRLVGLRYKHGVSGALDLLDAERSSYSAEGAALSAQLTRAENLADLYKALGGGLKRDTQTGK
For B7, in series [2], the “stoichiometry N” value worked out at 3.

For the origin of these results see article PMC3143649 (The Journal of Biological Chemistry, 2011).
